Source: paper PMC11297931 (2024)

Tests used:
Test in all cases: SPR
[1] = biological target: T1, doubly T-loop phosphorylated Cdk7/Cyclin H/Mat1_(230-309) ternary complex (human, UniProt P50613 2-346; P51946 1-323; P51948 230-309, phosphoserine at 164; phosphothreonine at 170 | M1 acetylated)
T1 chain 1: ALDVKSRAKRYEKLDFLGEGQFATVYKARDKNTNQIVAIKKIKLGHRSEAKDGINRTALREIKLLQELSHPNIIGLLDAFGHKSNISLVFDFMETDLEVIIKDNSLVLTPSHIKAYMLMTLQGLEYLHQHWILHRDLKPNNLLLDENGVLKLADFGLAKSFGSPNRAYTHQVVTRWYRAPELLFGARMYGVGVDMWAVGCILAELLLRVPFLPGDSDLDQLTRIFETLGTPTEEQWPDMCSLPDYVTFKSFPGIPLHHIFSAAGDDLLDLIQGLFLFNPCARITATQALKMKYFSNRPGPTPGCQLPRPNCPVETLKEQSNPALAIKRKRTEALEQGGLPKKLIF
T1 chain 2: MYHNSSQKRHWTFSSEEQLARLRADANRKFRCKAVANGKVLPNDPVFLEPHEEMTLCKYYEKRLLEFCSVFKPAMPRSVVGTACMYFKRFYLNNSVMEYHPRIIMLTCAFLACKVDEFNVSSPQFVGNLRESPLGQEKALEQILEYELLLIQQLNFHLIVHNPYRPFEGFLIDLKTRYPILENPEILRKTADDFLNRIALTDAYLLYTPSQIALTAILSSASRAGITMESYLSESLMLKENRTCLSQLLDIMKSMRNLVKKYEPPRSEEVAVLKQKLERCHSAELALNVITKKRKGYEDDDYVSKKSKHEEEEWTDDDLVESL
T1 chain 3: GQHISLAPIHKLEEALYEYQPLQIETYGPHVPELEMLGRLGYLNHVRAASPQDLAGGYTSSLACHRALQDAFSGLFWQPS

[2] = biological target: Cdk7(S164A)/Cyclin H binary complex (human, UniProt P50613 2-346; P51946 1-323, S164A, phosphothreonine at 170)
[3] = biological target: Cdk7(S164E)/Cyclin H binary complex (human, UniProt P50613 2-346; P51946 1-323, S164E, phosphothreonine at 170)

Binder | Kd [1] [nM] | Kd [2] [nM] | Kd [3] [nM]
VHH_(RD7-04), form for biochemical studies (VHH) VHH: QVQLVESGGGLVQPGGSLRLSCVASGFTFKNFYMGWVRQAPDKGLEWVATINSGGEIQSYADSVKGRFTISRDNAKNTLYLQMNNLRPEDTAVYYCSKQSSTPAKGQGTQVTVSS | 0.6 |  | 
MBP-Mat1_(230-309) (domain or fragment) GQHISLAPIHKLEEALYEYQPLQIETYGPHVPELEMLGRLGYLNHVRAASPQDLAGGYTSSLACHRALQDAFSGLFWQPS |  | 10.8 | 7.3
